From patent publication US20210054097A1 (Novo Nordisk, published 2021)
Values belong to the binder of their own block, whether it stands above or below them. Ends that are not written are not given here.

Tests used:
[1] = target: T1, human plasma-derived Factor X zymogen (human, UniProt P00742 41-179; P00742 183-488); assay: apparent KD fitted from FXa generation assay
T1 construct: Plasma-derived, bought (Haematologic Technologies); also called FX; human FX
Method: The ability of the monovalent anti-FX Nanobody® (Nb) to promote FIXa-mediated FX-activation was determined in the presence of a procoagulant phospholipid membrane according to the principles described by Scheiflinger et al. (2008) J Thromb Haemost, 6:315-322. A Fab of mAb 13F62 (IgG1 isotype, variable sequences identified by SEQ ID NO:6 and 7), also found to bind the activation peptide, were included for comparison. Moreover, anti-FX antibodies as disclosed in U.S. Pat. No. 9,334,331 (J327 and L404-k in said publication), corresponding to the anti-FX arm of ACE910); and more recently in WO2018/021450 (J327 D31H and JYL280 in said publication) and WO2018/098363 (BIIB-12-917 represented by SEQ ID NO:427 and 615 in said publication) are stated to be suitable for use as part of anti-FIX/anti-FX bispecific FVIII mimetic compounds were, furthermore, included for comparison.
Each compound was tested individually in a concentration range from 0-1000 nM, 0-2000 nM, 0-4000 nM or 0-8000 nM by pre-incubation with 1-1.5 nM human plasma-derived FIXa (Haematologic Technologies Inc, USA) and 500 μM 25:75 phosphatidyl serine:phosphatidyl choline phospholipid vesicles (Haematologic Technologies Inc, USA) in assay buffer (50 mM HEPES, 100 mM NaCl, 5 mM CaCl₂, 0.1% (w/v) PEG8000, 1 mg/mL bovine serum albumin, pH 7.3) for 10 minutes. The reaction was initiated by addition of human plasma-derived FX (Haematologic Technologies Inc, USA) to a final concentration of 100 nM and a reaction volume of 50 μL. Following 20 minutes activation at room temperature while agitated (1000 RPM), the reaction was quenched by addition of 25 μL quench buffer (50 mM HEPES, 100 mM NaCl, 60 mM EDTA, 0.1% (w/v) PEG8000, 1 mg/mL bovine serum albumin, pH 7.3). The amount of FXa generated was determined by addition of 25 μL 2 mM S-2765 chromogenic substrate for FXa (Chromogenix, Sweden) and chromogenic substrate conversion was followed by measuring absorbance at 405 nm for 10 minutes in a microplate reader. The observed change in 405 nm absorbance (ΔAbs405/min) was fitted to the quadratic binding equation (eq. 1) to obtain the peak stimulatory activity and EC50.

[2] = target: T1, human plasma-derived Factor X zymogen; assay: cell-based or functional assay
[3] = target: T2, FX activation peptide 12-mer DPTENPFDLLDF (human); assay: peptide ELISA
T2 peptide: DPTENPFDLLDF-biotin
Method: (§1) The peptides were C-terminally conjugated to biotin and 50 μL of 1 μg/mL peptide solution was used for immobilization in discrete wells of the microtiter plate which was pre-coated with 1 μg/mL streptavidin. Each well was washed with washing buffer (10 mM Tris, 150 mM NaCl, 2.5 mM CaCl₂, 0.05% Tween 20, pH 8.60) followed by addition of 50 μL of 2 μg/mL FLAG-tagged anti-FX Nanobody® or IgG antibody to be tested. After 1 hour non-bound Nanobody®/antibody was washed off using washing buffer.
(§2) Bound anti-FX activation peptide ligand was detected by first binding a HRP-labelled secondary antibody (for FLAG-tagged Nanobodies: Anti-FLAG mAb M2-Peroxidase (HRP) (Sigma Aldrich, US), for antibody: Fcγ Fragment Specific Peroxidase AffiniPure F(ab′)₂ Fragment Goat Anti-Human IgG (Jackson ImmunoResearch Laboratories, Inc., US), or Peroxidase AffiniPure Goat Anti-Mouse IgG (Jackson ImmunoResearch Laboratories, Inc., US)) for 1 hour, and then adding 100 μL TMB-1 ELISA substrate (Kem-En-Tec Diagnostics, Denmark).

[4] = target: T3, FX activation peptide 12-mer TSSSGEAPDSIT (human); assay: peptide ELISA
T3 peptide: TSSSGEAPDSIT-biotin
Method: as §1, §2

[5] = target: T4, FX activation peptide 12-mer KPYDAADLDPTE (human); assay: peptide ELISA
T4 peptide: KPYDAADLDPTE-biotin
Method: as §1, §2

[6] = target: T5, FX activation peptide 12-mer DFNQTQPERGDN (human); assay: peptide ELISA
T5 peptide: DFNQTQPERGDN-biotin
Method: as §1, §2

[7] = target: T6, FX activation peptide 12-mer LDFNQTQPERGD (human); assay: peptide ELISA
T6 peptide: LDFNQTQPERGD-biotin
Method: as §1, §2

[8] = target: T7, FX activation peptide 12-mer SITWKPYDAADL (human); assay: peptide ELISA
T7 peptide: SITWKPYDAADL-biotin
Method: as §1, §2

[9] = target: T8, FX activation peptide 12-mer DLLDFNQTQPER (human); assay: peptide ELISA
T8 peptide: DLLDFNQTQPER-biotin
Method: as §1, §2

[10] = target: T9, FX activation peptide 12-mer DAADLDPTENPF (human); assay: peptide ELISA
T9 peptide: DAADLDPTENPF-biotin
Method: as §1, §2

[11] = target: T10, FX activation peptide 12-mer ITWKPYDAADLD (human); assay: peptide ELISA
T10 peptide: ITWKPYDAADLD-biotin
Method: as §1, §2

[12] = target: T11, FX activation peptide 12-mer YDAADLDPTENP (human); assay: peptide ELISA
T11 peptide: YDAADLDPTENP-biotin
Method: as §1, §2

[13] = target: T12, FX activation peptide 12-mer AADLDPTENPFD (human); assay: peptide ELISA
T12 peptide: AADLDPTENPFD-biotin
Method: as §1, §2

[14] = target: T13, FX activation peptide 12-mer ADLDPTENPFDL (human); assay: peptide ELISA
T13 peptide: ADLDPTENPFDL-biotin
Method: as §1, §2

[15] = target: T14, FX activation peptide 12-mer AQATSSSGEAPD (human); assay: peptide ELISA
T14 peptide: AQATSSSGEAPD-biotin
Method: as §1, §2

[16] = target: T15, FX activation peptide 12-mer PDSITWKPYDAA (human); assay: peptide ELISA
T15 peptide: PDSITWKPYDAA-biotin
Method: as §1, §2

[17] = target: T16, FX activation peptide 12-mer TQPERGDNNLTR (human); assay: peptide ELISA
T16 peptide: TQPERGDNNLTR-biotin
Method: as §1, §2

[18] = target: T17, FX activation peptide 12-mer EAPDSITWKPYD (human); assay: peptide ELISA
T17 peptide: EAPDSITWKPYD-biotin
Method: as §1, §2

[19] = target: T18, FX activation peptide 12-mer SGEAPDSITWKP (human); assay: peptide ELISA
T18 peptide: SGEAPDSITWKP-biotin
Method: as §1, §2

[20] = target: T19, FX activation peptide 12-mer NPFDLLDFNQTQ (human); assay: peptide ELISA
T19 peptide: NPFDLLDFNQTQ-biotin
Method: as §1, §2

[21] = target: T20, FX activation peptide 12-mer LLDFNQTQPERG (human); assay: peptide ELISA
T20 peptide: LLDFNQTQPERG-biotin
Method: as §1, §2

[22] = target: T21, FX activation peptide 12-mer ATSSSGEAPDSI (human); assay: peptide ELISA
T21 peptide: ATSSSGEAPDSI-biotin
Method: as §1, §2

[23] = target: T22, FX activation peptide 12-mer QATSSSGEAPDS (human); assay: peptide ELISA
T22 peptide: QATSSSGEAPDS-biotin
Method: as §1, §2

[24] = target: T23, FX activation peptide 12-mer WKPYDAADLDPT (human); assay: peptide ELISA
T23 peptide: WKPYDAADLDPT-biotin
Method: as §1, §2

[25] = target: T24, FX activation peptide 12-mer SSGEAPDSITWK (human); assay: peptide ELISA
T24 peptide: SSGEAPDSITWK-biotin
Method: as §1, §2

[26] = target: T25, FX activation peptide 12-mer PYDAADLDPTEN (human); assay: peptide ELISA
T25 peptide: PYDAADLDPTEN-biotin
Method: as §1, §2

[27] = target: T26, FX activation peptide 12-mer FDLLDFNQTQPE (human); assay: peptide ELISA
T26 peptide: FDLLDFNQTQPE-biotin
Method: as §1, §2

[28] = target: T27, FX activation peptide 12-mer GEAPDSITWKPY (human); assay: peptide ELISA
T27 peptide: GEAPDSITWKPY-biotin
Method: as §1, §2

[29] = target: T28, FX activation peptide 12-mer FNQTQPERGDNN (human); assay: peptide ELISA
T28 peptide: FNQTQPERGDNN-biotin
Method: as §1, §2

[30] = target: T29, FX activation peptide 12-mer DLDPTENPFDLL (human); assay: peptide ELISA
T29 peptide: DLDPTENPFDLL-biotin
Method: as §1, §2

[31] = target: T30, FX activation peptide 12-mer DSITWKPYDAAD (human); assay: peptide ELISA
T30 peptide: DSITWKPYDAAD-biotin
Method: as §1, §2

[32] = target: T31, FX activation peptide 12-mer PFDLLDFNQTQP (human); assay: peptide ELISA
T31 peptide: PFDLLDFNQTQP-biotin
Method: as §1, §2

[33] = target: T32, FX activation peptide 12-mer PTENPFDLLDFN (human); assay: peptide ELISA
T32 peptide: PTENPFDLLDFN-biotin
Method: as §1, §2

[34] = target: T33, FX activation peptide 12-mer APDSITWKPYDA (human); assay: peptide ELISA
T33 peptide: APDSITWKPYDA-biotin
Method: as §1, §2

[35] = target: T34, FX activation peptide 12-mer ENPFDLLDFNQT (human); assay: peptide ELISA
T34 peptide: ENPFDLLDFNQT-biotin
Method: as §1, §2

[36] = target: T35, FX activation peptide 12-mer SSSGEAPDSITW (human); assay: peptide ELISA
T35 peptide: SSSGEAPDSITW-biotin
Method: as §1, §2

[37] = target: T36, FX activation peptide 12-mer TWKPYDAADLDP (human); assay: peptide ELISA
T36 peptide: TWKPYDAADLDP-biotin
Method: as §1, §2

[38] = target: T37, FX activation peptide 12-mer LDPTENPFDLLD (human); assay: peptide ELISA
T37 peptide: LDPTENPFDLLD-biotin
Method: as §1, §2

[39] = target: T38, FX activation peptide 12-mer QTQPERGDNNLT (human); assay: peptide ELISA
T38 peptide: QTQPERGDNNLT-biotin
Method: as §1, §2

[40] = target: T39, FX activation peptide 12-mer TENPFDLLDFNQ (human); assay: peptide ELISA
T39 peptide: TENPFDLLDFNQ-biotin
Method: as §1, §2

[41] = target: human activated Factor X (human, UniProt P00742 41-179; P00742 235-488); assay: cell-based or functional assay
human activated Factor X, sequence (P00742 41-179, chain 1 of 2): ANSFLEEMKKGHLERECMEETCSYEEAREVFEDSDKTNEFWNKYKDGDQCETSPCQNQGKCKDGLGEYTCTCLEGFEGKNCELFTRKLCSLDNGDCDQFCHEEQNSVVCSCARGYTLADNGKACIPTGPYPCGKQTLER
human activated Factor X, sequence (P00742 235-488, chain 2 of 2): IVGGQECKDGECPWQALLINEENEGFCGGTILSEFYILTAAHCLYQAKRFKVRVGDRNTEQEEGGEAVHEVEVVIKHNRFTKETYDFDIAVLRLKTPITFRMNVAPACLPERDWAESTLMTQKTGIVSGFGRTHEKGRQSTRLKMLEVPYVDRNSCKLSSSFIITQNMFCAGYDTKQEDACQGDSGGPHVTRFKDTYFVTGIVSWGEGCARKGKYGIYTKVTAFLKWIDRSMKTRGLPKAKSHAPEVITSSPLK

T1 sequence (P00742 41-179, chain 1 of 2): as the sequence (P00742 41-179, chain 1 of 2) above
T1 sequence (P00742 183-488, chain 2 of 2): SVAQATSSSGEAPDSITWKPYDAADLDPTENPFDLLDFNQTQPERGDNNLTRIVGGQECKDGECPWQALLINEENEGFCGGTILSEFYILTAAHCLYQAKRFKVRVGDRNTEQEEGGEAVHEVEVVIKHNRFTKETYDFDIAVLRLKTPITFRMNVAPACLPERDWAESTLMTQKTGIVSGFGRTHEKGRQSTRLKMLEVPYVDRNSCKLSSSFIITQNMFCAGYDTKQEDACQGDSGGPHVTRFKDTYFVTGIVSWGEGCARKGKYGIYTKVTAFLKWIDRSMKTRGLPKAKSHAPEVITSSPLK

Kd [1]: 3.1 nM
Increase in FX activation (fold) [2]: 1.5 fold
B1: Fab of mAb 13F62 (Fab, V domains shown)
VH: EVQLVESGGGQVKPGGSLRLSCAASGFTFSTSSIYWVRQAPGKGLEWVSSISSGSSYIFYADSVKGRFTISRDNAKNSLFLQMNSLRAEDTAVYYCVSGYSRLLDYWGQGTLVTVSS
VL: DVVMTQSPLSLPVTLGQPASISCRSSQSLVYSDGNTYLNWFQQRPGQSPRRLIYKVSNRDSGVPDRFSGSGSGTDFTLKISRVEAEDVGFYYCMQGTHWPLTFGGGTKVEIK
notes: Fab of an IgG1 antibody; also called Fab of 13F62

ELISA signal relative to background [3]: 29.8
ELISA signal relative to background [4]: 0.68
ELISA signal relative to background [5]: 0.77
ELISA signal relative to background [6]: 1.23
ELISA signal relative to background [7]: 0.8
ELISA signal relative to background [8]: 7.95
ELISA signal relative to background [9]: 0.82
ELISA signal relative to background [10]: 0.77
ELISA signal relative to background [11]: 4.23
ELISA signal relative to background [12]: 0.84
ELISA signal relative to background [13]: 0.77
ELISA signal relative to background [14]: 1.25
ELISA signal relative to background [15]: 1.89
ELISA signal relative to background [16]: 1.89
ELISA signal relative to background [17]: 8.86
ELISA signal relative to background [18]: 1.64
ELISA signal relative to background [19]: 0.82
ELISA signal relative to background [20]: 28.6
ELISA signal relative to background [21]: 0.86
ELISA signal relative to background [22]: 3.2
ELISA signal relative to background [23]: 1.82
ELISA signal relative to background [24]: 1.18
ELISA signal relative to background [25]: 0.73
ELISA signal relative to background [26]: 0.84
ELISA signal relative to background [27]: 30.6
ELISA signal relative to background [28]: 1.5
ELISA signal relative to background [29]: 1.77
ELISA signal relative to background [30]: 26.4
ELISA signal relative to background [31]: 3.61
ELISA signal relative to background [32]: 29.7
ELISA signal relative to background [33]: 30.1
ELISA signal relative to background [34]: 1.59
ELISA signal relative to background [35]: 28.7
ELISA signal relative to background [36]: 0.77
ELISA signal relative to background [37]: 1.95
ELISA signal relative to background [38]: 31
ELISA signal relative to background [40]: 29.7
FXa amidolytic activity (relative to free FXa, fold) [41]: 0.94 fold
B2: mAb 13F62 (antibody, V domains shown)
VH: EVQLVESGGGQVKPGGSLRLSCAASGFTFSTSSIYWVRQAPGKGLEWVSSISSGSSYIFYADSVKGRFTISRDNAKNSLFLQMNSLRAEDTAVYYCVSGYSRLLDYWGQGTLVTVSS
VL: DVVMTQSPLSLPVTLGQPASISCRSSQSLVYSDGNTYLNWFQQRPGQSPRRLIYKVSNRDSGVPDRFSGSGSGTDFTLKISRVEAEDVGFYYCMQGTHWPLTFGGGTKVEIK
notes: IgG1 isotype
ELISA signal relative to background [39]: 1.95
